# Reference: the supplement of paper PMC9170038
# Tested on: MS2 coat protein
# Experiment: apparent KD of MS2 coat protein; higher = weaker reporter binding
# Details: Eterna round: R107; input ligand: none
# Description: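 RNA-MaP round R107: designed RNA switches with theophylline, tryptophan, arginine or FMN aptamers are transcribed on-chip within common flanks. They are titrated with SNAP-549-labelled MS2 coat protein in RNA-MaP buffer (100 mM Tris pH 7.5, 80 mM KCl, 4 mM MgCl2), without ligand or with the indicated ligand. Median apparent KD per design.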
row,Sequence,apparent KD of MS2 coat protein [nM]
1,AAAAGUAGGUCCAAUAAAACUACAUGUGAAGGAGCGCCCGAAAGGGCAGGUAGGUCGCACAUGAGGAUCACCCAUGUCCUACAAA [ArgEX 7 #OpenEnded],86.1
2,ACCUGUACGAAAAGUGCAGGACACGGAAUACGAGGACCGGUACGGCCGCCACUCGGAACCUGAGGAUCACCCUGGUAAAACCGUG [TrypAS 13 #AlternativeMS2 #Zipper #StaticStem],17.8
3,GGCGCGAGCCAACAUGAGGAUCACCCAUGUCGAGGACCGGUACGGCCGCCACUCGAACGAGUGGCGCGCGCGCGCGCGCGCGCGC [Vaa],15.9
4,AGCGUAUAGACGGAUACCAGCGCCGAUUAACAUGAGGAUCACCCAUGUAGUGUGGGUGGACGCCCUUGGCAGCCGAGUAUAGGUA [#07 Exclusion-TheophyllineB],89.7
5,ACAUGAAUAUCAUCUAUUUAUUGUACUGAAGGAGCGUCCAUGAGGACAGGUAGGUCGCAGUGUAAAACAUGAGGAUCACCCAUGU [Same State - Arginine A #1],22.2
6,CGUAUUACGAAAGUAGUACGUAGUUCGAGUCGAGGACCGGUACGGCCGCCACUCGGACAUGAGGAUCACCCAUGUAGCGAAAGCU [Tryptophan A 23],125
7,UUGGGUUUGUGAAGGAGCGGGAAAGAUAUAUAUUUAAUCCUAACAUGAGGAUCACCCAUGUCCCAGGUAGGUCGCGCGGGUUUGG [12.O],47.1
8,UAGCGAUAAUCUGAUACCAGACGUGUACUCUCCUCAGACAUGAGCAUCAGCCAUGUAUGCGUCCCUUGGCAGCAGAGAUAGGAGA [Theo B Ex t5b],16.1
9,AAAUAAAUAACUGAUACCAGUGGACUGACAUGAGGAUCACCCAUGUUGGGUUUUGUUGUCCACCCUUGGCAGCAGGGAUAUAAAA [#24 Exclusion-TheophyllineB],38.5
10,GUAUAUAUGCGAAGGAGCGGGAAAUAUAUAUAUAUAAUCCUAACAUGAGGAUCACCCAUGUCCCAGGUAGGUCGCGCAUAUAUAU [12.B],69.6
11,UGACAGAUAACCGCUGGUGCUCUUGAGUUGCGAGGACCGGUACGGCCGCCACUCGACAACAUGAGGAUCACCCAUGUUGCGGGUC [Soleeror],146
12,GUAGGUCACCUCAUGAGACCUACCCUGGAAGGAGCGAGCGAAAGCUCAGGUAGGUCGCCAGAAACAUGAGGAUCACCCAUGUAAU [(A)''-(M)'-(A)'-(Arg1)-(Arg2)-(M1)-(M2)_Design3],51.1
13,AUAACAUGAGGAUCACCCAUGUAAGCAGAUACCAGCUAGGAAACUAGCCCUUGGCAGCUGCAAUCAUGGGUGUUUGCAGCUGCAA [(M1)-(M2)-(T1)-(T2)-(M)'-(T)'_Design2],18.1
14,AAUGUAUGGCACAUGAGGAUCACCCAUGUGCGAGGACCGGUACGGCCGCCACUCGGUCCUGGGUUCUUAUUACUAUACAUUAAUG [XTryp A #15],11
15,GGGCAAGAGGGAAGGAGCGUCGGCUGAGUAACAUGAGGAUCACCCAUGUAGCACAUAGUGUGGCAGGUAGGUCGCCCUCUGCCCU [SS-ArgB7],11.3
16,GCUAGGUCAUCGGCCGCCACUAACGACGGUUCGAACAUGAGGAUCACCCAUGUGCCACAUGCGCAUAGGACCGGGAUGACCUAGC [SSTB NP+V+V2 #6],19.5
17,GACAUGAGGAUCACCCAUGUACCGCGAGAAGGAGCGCGGAUAAACGCAGGUAGGUCGCUCGUGGGCUUAUAUUCAAUUGUAAGCU [Usence],33.2

# Same assay, conditions: Eterna round: R107; input ligand: theophylline 20 uM
row,Sequence,apparent KD of MS2 coat protein [nM]
1,UUUACGGGAAACCGAACUAAACAAAGGGAAGGAGCGCCAAACAAGGCAGGUAGGUCGCCCACAUGAGGAUCACCCAUGUGUUGGG [Exclusion Arginine A GF 25],67.9
2,UAUCGUCAGACGGCCGCCACUAGAACAUGAGGAUCACCCAUGUAAGUGGCCGGUCUCCUCAUGACUAGGACCGGGUCUGACGAAU [(Trp1)-(Ms2)-(T)'-(M)'-(Trp2)_Design18],14.1
3,CCAUAAGUACCGGUCCUCAGAUCCUCAUGACGAGGACCGGUACGGCCGCCACUCGAAACAUGAGGAUCACCCAUGUAAUAAUAUU [Brourdmod14],45.4
4,UGCGUACAUGAGGAUCACCCAUGUAUAGAUACCAGUCACCCAUGUGGCCCUUGGCAGCUAACAUGAGGAUCACUACAUGAGGAUC [Exclusion Theophylline A 3],72.2
5,ACGUAAUGCGGAAGGAGCGUCAUUUUAAAACAUGAGGAUCACCCAUGUAAUAUUUUUGUGUGACAGGUAGGUCGCCGAAGUACGA [#07 Same State - Arginine B],19.3
6,ACAUGAGGAUCACCCAUGUCAGGGCACGAUACCAGCUGAUCCGGUGGCCCUUGGCAGCGUGACGUUUGGUCCCGCGGAUCACACG [xxmullin],262
7,UAUCCACAUGAGGAUCACCCAUGUAAGGAAGGAGCGGUGAAUGCACCAGGUAGGUCGCCUUGCUGAGGACAGCCGGUGGAUUCGU [Exclusion - Arginine A (Freestyle 24)],17.9
8,AAAAGUAGGUCCAAUAAAACUACAUGUGAAGGAGCGCCCGAAAGGGCAGGUAGGUCGCACAUGAGGAUCACCCAUGUCCUACAAA [ArgEX 7 #OpenEnded],103
9,UUCACAUGAUCUGAAUAUACAGAAAAGAAACGAGGACCGGUACGGCCGCCACUCGUGCCGGAAACAUGAGGAUCACCCAUGUGUU [AK1.3 Exclusion TrypA mod IceBolt],28.5
10,ACCUGUACGAAAAGUGCAGGACACGGAAUACGAGGACCGGUACGGCCGCCACUCGGAACCUGAGGAUCACCCUGGUAAAACCGUG [TrypAS 13 #AlternativeMS2 #Zipper #StaticStem],22.6
11,GGCGCGAGCCAACAUGAGGAUCACCCAUGUCGAGGACCGGUACGGCCGCCACUCGAACGAGUGGCGCGCGCGCGCGCGCGCGCGC [Vaa],17.9
12,AGCGUAUAGACGGAUACCAGCGCCGAUUAACAUGAGGAUCACCCAUGUAGUGUGGGUGGACGCCCUUGGCAGCCGAGUAUAGGUA [#07 Exclusion-TheophyllineB],115
13,ACAUGAAUAUCAUCUAUUUAUUGUACUGAAGGAGCGUCCAUGAGGACAGGUAGGUCGCAGUGUAAAACAUGAGGAUCACCCAUGU [Same State - Arginine A #1],36.6
14,CGUAUUACGAAAGUAGUACGUAGUUCGAGUCGAGGACCGGUACGGCCGCCACUCGGACAUGAGGAUCACCCAUGUAGCGAAAGCU [Tryptophan A 23],156
15,UUGGGUUUGUGAAGGAGCGGGAAAGAUAUAUAUUUAAUCCUAACAUGAGGAUCACCCAUGUCCCAGGUAGGUCGCGCGGGUUUGG [12.O],46.4
16,UAGCGAUAAUCUGAUACCAGACGUGUACUCUCCUCAGACAUGAGCAUCAGCCAUGUAUGCGUCCCUUGGCAGCAGAGAUAGGAGA [Theo B Ex t5b],24.5
17,AAAUAAAUAACUGAUACCAGUGGACUGACAUGAGGAUCACCCAUGUUGGGUUUUGUUGUCCACCCUUGGCAGCAGGGAUAUAAAA [#24 Exclusion-TheophyllineB],54.7
18,GUAUAUAUGCGAAGGAGCGGGAAAUAUAUAUAUAUAAUCCUAACAUGAGGAUCACCCAUGUCCCAGGUAGGUCGCGCAUAUAUAU [12.B],86.9
